# In publication PMC12314576, “The Actin‐Binding Prolyl‐Isomerase Par17 Sustains Its Substrate Selectivity by Interdomain Allostery” (Proteins, 2025):
# Test system: T1, C[C@H](NC(=O)CCC(=O)O)C(=O)N[C@@H](CCCCN)C(=O)N1CCC[C@H]1C(=O)N[C@@H](Cc1ccccc1)C(=O)Nc1ccc([N+](=O)[O-])cc1
# T1 construct: GST-His6 (PreScission site) (N, cleaved yes); made in house; host or cells: E. coli BL21 (DE3) T1r
# Assay: Protease-coupled isomerase assay (PPIase assay) with the catalytic domain
# Assay type: biochemical, human
# Conditions: other: as quoted in running text; pH 6.8; 10.0 °C
# Protocol: To determine the catalytic efficiency and substrate specificity of Par14 and Par17, we performed a protease‐coupled assay. In this assay, the trans form of a para‐nitroaniline (pNA) tagged model substrate is cleaved by chymotrypsin, and the resulting change in absorption at 390 nm due to free pNA is measured. When the model substrate is added to the protease‐containing buffer, all trans‐Xaa‐Pro isomers are immediately cleaved by chymotrypsin. Therefore, the extent of the first signal burst observed in the absorption spectrum correlates with the amount of trans isomers of the model substrate formed during the experimental dead time. […] The newly formed trans‐Xaa substrates are immediately cleaved, and isomerization can thus be monitored over time (Figure 2). Eighteen different substrate peptides with varying amino acids at the Xaa position (Suc‐Ala‐Xaa‐Pro‐Phe‐pNa) were measured to determine the isomerase activity and substrate selectivity of Par14 (Par17Δ1–25), Par17, and the catalytic domain (Par17Δ1–60) (Table S1). […]
# We determined the isomerase activity using the PPIase assay described by. […] A baseline was recorded for 5 min (Cary 100Bio UV/Vis spectrophotometer, Varian/Agilent, Santa Clara, US, λ: 390 nm, bandwidth: 1.0 nm, average time between measurements: 0.5 s, temperature: 10°C). […] The solution was mixed by inverting the cuvette three times and the reaction was recorded for 15 min. […]
# Chain of PPIase domain (Par17Δ1-60) (Homo sapiens) (chain, as listed by the source mutant): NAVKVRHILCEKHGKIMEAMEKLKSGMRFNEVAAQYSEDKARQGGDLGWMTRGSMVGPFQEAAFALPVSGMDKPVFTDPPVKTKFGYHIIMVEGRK
substance,measurement,value
PPIase domain (Par17Δ1-60) (Homo sapiens),kcat/Km,3700 M⁻¹ s⁻¹
